Experiment: soluble on expression in E. coli; label from the status in PepcDB or PDB records

Sequence	soluble on expression in E. coli
MSFSQAVSGLNAAATNLDVIGNNIANSATYGFKSGTASFADMFAGSKVGLGVKVAGITQDFTDGTTTNTGRGLDVAISQNGFFRLVDSNGSVFYSRNGQFKLDENRNLVNMQGMQLTGYPATGTPPTIQQGANPAPITIPNTLMAAKSTTTASMQINLNSTDPVPSKTPFSVSDADSYNKKGTVTVYDSQGNAHDMNVYFVKTKDNEWAVYTHDSSDPAATAPTTASTTLKFNENGILESGGTVNITTGTINGATAATFSLSFLNSMQQNTGANNIVATNQNGYKPGDLVSYQINNDGTVVGNYSNEQEQVLGQIVLANFANNEGLASQGDNVWAATQASGVALLGTAGSGNFGKLTNGALEASNVDLSKELVNMIVAQRNYQSNAQTIKTQDQILNTLVNLR	not soluble
MSGFSVYVGNAPFQTTEDDLGNYFSQAGNVSNVRIVCDRETGRPRGFAFVEFTEEAAAQRAVDQFNGVDFNGRALRVNLAQNRNN	not soluble
MSGGLLKALRSDSYVELSQYRDQHFRGDNEEQEKLLKKSCTLYVGNLSFYTTEEQIYELFSKSGDIKKIIMGLDKMKKTACGFCFVEYYSRADAENAMRYINGTRLDDRIIRTDWDAGFKEGRQYGRGRSGGQVRDEYRQDYDAGRGGYGKLAQNQ	soluble
MSGIITILGLGAGELDQLTMGVYRKIKEADHLFVRTKEHPVIEELEKEGVQYTSFDAVYEAHDTFEIVYETIANKLLEQAEGTEIIYAVPGHPLVAERTVQLLLEKGEVSNVEVRIEGGQSFLDPMFASLKIDPIEGFQLLDATSFERGQLELRQHLIFCQVYDAFVASDVKLTLMEMLPDDYEVYIVTAAGTSFEQVKKVPLYMLDHETELNNLTSVYMPPVQERASLYQQFDVLREIIAELRGPNGCPWDKKQTHQSLKKYLIEEAYEVLEAIDEEDDDHLVEELGDILLQVMLHAQIGEDEGWFSIDDIIRTLSEKMVRRHPHVFGNTDVNSADEVIANWEEIKKQEKGFVKESVLNGVPKSLPQLLRAYEIQKKAGKVGFDWVDVQPMIEKALEEWQEFQQEVTNMDEEKMLGEFGDLLFAFVNIARHYKIDPEEALRSTNEKFTGRFLYMEAKVAEMNKEMKDLSLEQLDVLWEEAKQTER	not soluble
MSGQKCSAYTDTMGTCTICSIFAPHSQLFICRHEGCKYALKQSSSIMTPAMFYRKEKVICGKCAFVGPHKMHKDFVSKAQKLAFKIASQEIGVRLQMEFDVLSELHEDNPVDYAIILSGHEKLEKIDVIKYLSQSKTIVEWNLRQRQLNEAIQFIKFNRIEGYHRVKELANKMLDAFYDANATIERDSENGSPQSDDDHLSDVSHECQGSSRSSISSKKSSIHSTSTTGTVILNQNPDNALSCSEVSGGDELKNKSSTNEGYTESMTETVITISRRFEMCIRRESPEDAVSRIADYLDDRIESNDQKKAIAEYMERNYSIKWPRQFQ	not soluble
MSHHHHHHAGIFTFEEPVTHVSESIGIMEVKVLRTSGARGNVIVPYKTIEGTARGGGEDFEDTCGELEFQNDEIVKTISVKVIDDEEYEKNKTFFLEIGEPRLVEMSEKKGGFTITEEYDDKQPLTSKEEEERRIAEMGRPILGEHTKLEVIIEESYEFKSTVD	soluble
MSIKSDSRHLYLQVIDRIKRDIETGVYKEKQKLPSEFELAKQLGVSRATLREALRVLEEENIIIRRHGVGTFVNARPLFTSGIEQLSSVTDMIRQAGRKPGTIFLSSSIQQPTEDDMRRFQCRPDENLLLIERVRTADGEPVVYCLDKILCKYLPKGISYEHESLFENLHNQTHRDIAYAVARIVPLGYHEKVSPILQCDPETALLVLKQMHFDKNDEPIFYSVNYFRSDKFSFHVMRKRFSF	not soluble
MSILPSNTPLYSHPLPQIEQWLKDQGCQQDENELHCWRLQKPSWQAEIWLDIEQITVRYIQAGENGQNIQRSFKYSLSRQDIEQAIFCGP	not soluble
MSINTANTPDGLGVLLYNGETIVIFAQGVVMTLGTSENENLEGRRTGTIYLTSHRIIFMPDPGDWLKSFEIPFNSMQDVNLNQPIFGANYLCGIASAVQGGQMRGEVKWRMTFNRGGCIEFGQSLLQAVERAVRMRPENAPPAYSPPIGDFYSAPPAYYQPSPDQGPNGFNPTTDSFPDQPNPSRVFMSSAPPPYPGIGPERGPHPTEELHVAGQFEAPPAYGSGETADGLRRRN	not soluble
MSIPFTRWPEEFARRYREKGYWQDLPLTDILTRHAASDSIAVIDGERQLSYRELNQAADNLACSLRRQGIKPGETALVQLGNVAELYITFFALLKLGVAPVLALFSHQRSELNAYASQIEPALLIADRQHALFSGDDFLNTFVTEHSSIRVVQLLNDSGEHNLQDAINHPAEDFTATPSPADEVAYFQLSGGTTGTPKLIPRTHNDYYYSVRRSVEICQFTQQTRYLCAIPAAHNYAMSSPGSLGVFLAGGTVVLAADPSATLCFPLIEKHQVNVTALVPPAVSLWLQALIEGESRAQLASLKLLQVGGARLSATLAARIPAEIGCQLQQVFGMAEGLVNYTRLDDSAEKIIHTQGYPMCPDDEVWVADAEGNPLPQGEVGRLMTRGPYTFRGYYKSPQHNASAFDANGFYCSGDLISIDPEGYITVQGREKDQINRGGEKIAAEEIENLLLRHPAVIYAALVSMEDELMGEKSCAYLVVKEPLRAVQVRRFLREQGIAEFKLPDRVECVDSLPLTAVGKVDKKQLRQWLASRASA	soluble
MSISASEARQRLFPLIEQVNTDHQPVRITSRAGDAVLMSADDYDAWQETVYLLRSPENARRLMEAVARDKAGHSAFTKSVDELREMAGGEE	soluble
MSITEQVDVAIVGSGPAGLAAAIELRRQGVARVCVLERDGEAGGIPRHCAHPPFGLREHGRLLTGPAYAQRNVEQAERAGVDIRLRHSVVALAAAGLLQLATPEGPRSLRATRVLLATGARETPRSARLLGGDRPLGVINTGALQAYLYLQGLKPFERPLIVGTELVSLSAVMSCRRAGIRPVAMLERNARATARWPLSLFPRLCGVPMHFSSELLEIEGRGRVEAARVRLGDGRVERIACDGILLSGRFVPESSLVRLSHLELDPASGGPRIDQFGRCSDPAYFAAGNLLRPIETAGWSFREGRRIAGLLAADLRAELPSAAPGIAIDCSGPLKLCVPQRLLADPTPGLAHLQLRVSEAASGRLRILADGRPVWERALSCLPERRLLVPLAALRLPPDTRRLEVAFLTSGHLEHHHHHH	not soluble
MSKFAERLQTVANKPEVFQKFSRGLERESLRYTPEGALTQTPHPKALGAALTHRWITTDFAESLLEFITPVSHEVDTLLAQMSDIHHFAQTKLGDEKLWPLSMPCYVGSEEGIVLAQYGSSNTGKMKTLYREGLKRRYGSLMQIISGVHFNFSFPESFWDALFGEQEESARQASKSAAYFGVIRNYYRFGWLIPYLFGASPALCSSFLQGRKTDLPFESIGKTLYLPYATSLRLSDLGYTNSAQSVLQIGFNSIEQYLQGLNEAIRTPSAEFAKLGVKVEGEYRQLNSNVLQIENELYAPIRPKRVTQSGERPSQALARAGVEYIEVRSLDVNPFSPIGINEDQVRFLDLFLAWTALSDSDPMDGCELACWRDNWRKVVLEGRKPGLELQIGCHGEVLTLQAWAKRVFADLRVIAETMDAALGGDAYQAVCAKLETWIENPELTLSAQILAEIKQHGGLGKTGCALGNEYRAVNLQHQYQFYSQDEMEQEVRRSTQAQADIEAKETLNFDAYLTQYFAYLQAVS	not soluble
MSKHRIALAGNPNTGKSTLFNTLTGLKQHTGNWTGKTVLKAEGEYEHNGSNYTLIDLPGTYSLYSNSADEEVARDYIIFEKPEVTVVVIDATAMERNLNLALQVMEMTNNVVICINLIDEAEKKGIVIDEKKLAKSLGVPVVKISARNRVGIGHLLNVIAKVANKKLIPTPIKITYSEKIENMIQELEPQIYKVFGDTYPARWIALRILDGDKNFLTTLQKHHNEPLVREVVINGISLSQ	not soluble
MSKIYVLDTNVLLQDPNAIFSFEENEVVIPAVVLEEVDSKKRYMDEVGRNARHVSKLIDALRQKGRLHEHVPLDTGGTLRIELNHRSFHQLQEIFIEKTNDNRILAVAKNLSLEEETKENGRPVILVSKDVLVRVKADAIGLLAEDFLNDRVVDNDEMY	not soluble

From the DeepSol protein solubility set
